From patent US10414821

Key:
PD-1 [1] = biological target: PD-1 (UniProt Q15116); test: ELISA
Target sequence in this assay (Q15116 25-170): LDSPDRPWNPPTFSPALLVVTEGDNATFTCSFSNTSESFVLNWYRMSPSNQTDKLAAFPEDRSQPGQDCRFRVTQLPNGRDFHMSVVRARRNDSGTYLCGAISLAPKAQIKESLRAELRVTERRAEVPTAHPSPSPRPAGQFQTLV

PD-1 [2] = biological target: PD-1 (UniProt Q15116); test: blocking ELISA (PD-1/PD-L1)
Target sequence in this assay (Q15116 25-167): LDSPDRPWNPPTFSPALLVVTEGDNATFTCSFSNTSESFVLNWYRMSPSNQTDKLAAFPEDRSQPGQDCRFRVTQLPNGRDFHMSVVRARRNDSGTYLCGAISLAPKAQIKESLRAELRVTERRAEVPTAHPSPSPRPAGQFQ

EC50 (PD-1 [1]) [nM] | IC50 (PD-1 [2]) [nM] | Substance
0.08 | – | MK3475
– | 0.603 | MK-3475
